From IntAct's records for PubMed 33199366

B1: Neuronal migration protein doublecortin (Mus musculus), O88809 (parent)
chain: MELDFGHFDERDKASRNMRGSRMNGLPSPTHSAHCSFYRTRTLQALSNEKKAKKVRFYRNGDRYFKGIVYAVSSDRFRSFDALLADLTRSLSDNINLPQGVRYIYTIDGSRKIGSMDELEEGESYVCSSDNFFKKVEYTKNVNPNWSVNVKTSANMKAPQSLASSNSAQARENKDFVRPKLVTIIRSGVKPRKAVRVLLNKKTAHSFEQVLTDITEAIKLETGVVKKLYTLDGKQVTCLHDFFGDDDVFIACGPEKFRYAQDDFSLDENECRVMKGNPSAAAGPKASPTPQKTSAKSPGPMRRSKSPADSGNDQDANGTSSSQLSTPKSKQSPISTPTSPGSLRKHKVDLYLPLSLDDSDSLGDSM
partner: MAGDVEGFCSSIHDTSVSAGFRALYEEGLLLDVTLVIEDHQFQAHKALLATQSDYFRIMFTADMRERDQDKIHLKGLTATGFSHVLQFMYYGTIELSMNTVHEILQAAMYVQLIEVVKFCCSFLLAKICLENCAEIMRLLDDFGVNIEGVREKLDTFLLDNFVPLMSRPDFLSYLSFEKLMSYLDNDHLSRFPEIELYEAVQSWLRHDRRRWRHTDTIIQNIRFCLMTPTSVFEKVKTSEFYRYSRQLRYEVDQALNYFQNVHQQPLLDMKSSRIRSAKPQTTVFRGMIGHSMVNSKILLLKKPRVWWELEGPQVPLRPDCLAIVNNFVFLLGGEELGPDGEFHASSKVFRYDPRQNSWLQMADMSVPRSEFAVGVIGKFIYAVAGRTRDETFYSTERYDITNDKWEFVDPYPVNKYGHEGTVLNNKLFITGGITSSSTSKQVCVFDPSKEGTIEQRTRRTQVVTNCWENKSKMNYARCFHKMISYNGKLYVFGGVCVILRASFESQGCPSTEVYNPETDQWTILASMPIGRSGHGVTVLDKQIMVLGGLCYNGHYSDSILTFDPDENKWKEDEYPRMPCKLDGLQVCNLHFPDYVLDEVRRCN
B2: Serine/threonine-protein kinase DCLK2 (Homo sapiens), Q8N568 (parent)
chain: MASTRSIELEHFEERDKRPRPGSRRGAPSSSGGSSSSGPKGNGLIPSPAHSAHCSFYRTRTLQALSSEKKAKKARFYRNGDRYFKGLVFAISSDRFRSFDALLIELTRSLSDNVNLPQGVRTIYTIDGSRKVTSLDELLEGESYVCASNEPFRKVDYTKNINPNWSVNIKGGTSRALAAASSVKSEVKESKDFIKPKLVTVIRSGVKPRKAVRILLNKKTAHSFEQVLTDITEAIKLDSGVVKRLCTLDGKQVTCLQDFFGDDDVFIACGPEKFRYAQDDFVLDHSECRVLKSSYSRSSAVKYSGSKSPGPSRRSKSPASVNGTPSSQLSTPKSTKSSSSSPTSPGSFRGLKQISAHGRSSSNVNGGPELDRCISPEGVNGNRCSESSTLLEKYKIGKVIGDGNFAVVKECIDRSTGKEFALKIIDKAKCCGKEHLIENEVSILRRVKHPNIIMLVEEMETATELFLVMELVKGGDLFDAITSSTKYTERDGSAMVYNLANALRYLHGLSIVHRDIKPENLLVCEYPDGTKSLKLGDFGLATVVEGPLYTVCGTPTYVAPEIIAETGYGLKVDIWAAGVITYILLCGFPPFRSENNLQEDLFDQILAGKLEFPAPYWDNITDSAKELISQMLQVNVEARCTAGQILSHPWVSDDASQENNMQAEVTGKLKQHFNNALPKQNSTTTGVSVIMNTALDKEGQIFCSKHCQDSGRPGMEPISPVPPSVEEIPVPGEAVPAPTPPESPTPHPPPAAPGGERAGTWRRHRD
partner: B1 partner
B3: Serine/threonine-protein kinase DCLK1 (Homo sapiens), O15075 (parent)
chain: MSFGRDMELEHFDERDKAQRYSRGSRVNGLPSPTHSAHCSFYRTRTLQTLSSEKKAKKVRFYRNGDRYFKGIVYAISPDRFRSFEALLADLTRTLSDNVNLPQGVRTIYTIDGLKKISSLDQLVEGESYVCGSIEPFKKLEYTKNVNPNWSVNVKTTSASRAVSSLATAKGSPSEVRENKDFIRPKLVTIIRSGVKPRKAVRILLNKKTAHSFEQVLTDITDAIKLDSGVVKRLYTLDGKQVMCLQDFFGDDDIFIACGPEKFRYQDDFLLDESECRVVKSTSYTKIASSSRRSTTKSPGPSRRSKSPASTSSVNGTPGSQLSTPRSGKSPSPSPTSPGSLRKQRSSQHGGSSTSLASTKVCSSMDENDGPGEEVSEEGFQIPATITERYKVGRTIGDGNFAVVKECVERSTAREYALKIIKKSKCRGKEHMIQNEVSILRRVKHPNIVLLIEEMDVPTELYLVMELVKGGDLFDAITSTNKYTERDASGMLYNLASAIKYLHSLNIVHRDIKPENLLVYEHQDGSKSLKLGDFGLATIVDGPLYTVCGTPTYVAPEIIAETGYGLKVDIWAAGVITYILLCGFPPFRGSGDDQEVLFDQILMGQVDFPSPYWDNVSDSAKELITMMLLVDVDQRFSAVQVLEHPWVNDDGLPENEHQLSVAGKIKKHFNTGPKPNSTAAGVSVIATTALDKERQVFRRRRNQDVRSRYKAQPAPPELNSESEDYSPSSSETVRSPNSPF
partner: B1 partner

Variants of: B1
Settings: with klh15_human KLHL15, Q96M94

| Variant | effect of a mutation on the interaction |
| --- | --- |
| MELDFGHFDERDKASRNMRGSRMNGLPSPTHSAHCSFYRTRTLQALSNEKKAKKVRFYRNGDRYFKGIVYAVSSDRFRSFDALLADLTRSLSDNINLPQGVRYIYTIDGSRKIGSMDELEEGESYVCSSDNFFKKVEYTKNVNPNWSVNVKTSANMKAPQSLASSNSAQARENKDFVRPKLVTIIRSGVKPRKAVRVLLNKKTAHSFEQVLTDITEAIKLETGVVKKLYTLDGKQVTCLHDFFGDDDVFIACGPEKFRLAQDDFSLDENECRVMKGNPSAAAGPKASPTPQKTSAKSPGPMRRSKSPADSGNDQDANGTSSSQLSTPKSKQSPISTPTSPGSLRKHKVDLYLPLSLDDSDSLGDSM [Y259L] | decreasing interaction |

Variants of: B2
Settings: with klh15_human KLHL15, Q96M94

| Variant | effect of a mutation on the interaction |
| --- | --- |
| Y276L | decreasing interaction |

Variants of: B3
Settings: with klh15_human KLHL15, Q96M94

| Variant | effect of a mutation on the interaction |
| --- | --- |
| Y265L | decreasing interaction |
